Experimental data published in US20110318377.

T1: Tat ARM peptide (amino acids 45-58) K51A
T1 chain: ISYGRKARRQRRRP

T2: Tat ARM peptide (amino acids 45-58) K50A
T2 chain: ISYGRAKRRQRRRP

T3: Tat ARM peptide carrying an acetyl group at position 50
T3 chain: ISYGRKKRRQRRRP

T4: unmodified Tat ARM peptide (amino acids 45-58)
T4 chain: ISYGRKKRRQRRRP

T5: Tat ARM peptide (amino acids 45-58) K50, 51AA
T5 chain: ISYGRAARRQRRRP

T6: Tat ARM peptide (amino acids 45-58) monomethylated at K51
T6 chain: ISYGRKKRRQRRRP

B1: recombinant Set9 (Upstate) (protein)
chain: MDSDDEMVEEAVEGHLDDDGLPHGFCTVTYSSTDRFEGNFVHGEKNGRGKFFFFDGSTLEGYYVDDALQGQGVYTYEDGGVLQGTYVDGELNGPAQEYDTDGRLIFKGQYKDNIRHGVCWIYYPDGGSLVGEVNEDGEMTGEKIAYVYPDERTALYGKFIDGEMIEGKLATLMSTEEGRPHFELMPGNSVYHFDKSTSSCISTNALLPDPYESERVYVAESLISSAGEGLFSKVAVGPNTVMSFYNGVRITHQEVDSRDWALNGNTLSLDEETVIDVPEPYNHVSKYCASLGHKANHSFTPNCIYDMFVHPRFGPIKCIRTLRAVEADEELTVAYGYDHSPPGKSGPEAPEWYQVELKAFQATQQK
B2: recombinant GST-p300 HAT (protein)
chain: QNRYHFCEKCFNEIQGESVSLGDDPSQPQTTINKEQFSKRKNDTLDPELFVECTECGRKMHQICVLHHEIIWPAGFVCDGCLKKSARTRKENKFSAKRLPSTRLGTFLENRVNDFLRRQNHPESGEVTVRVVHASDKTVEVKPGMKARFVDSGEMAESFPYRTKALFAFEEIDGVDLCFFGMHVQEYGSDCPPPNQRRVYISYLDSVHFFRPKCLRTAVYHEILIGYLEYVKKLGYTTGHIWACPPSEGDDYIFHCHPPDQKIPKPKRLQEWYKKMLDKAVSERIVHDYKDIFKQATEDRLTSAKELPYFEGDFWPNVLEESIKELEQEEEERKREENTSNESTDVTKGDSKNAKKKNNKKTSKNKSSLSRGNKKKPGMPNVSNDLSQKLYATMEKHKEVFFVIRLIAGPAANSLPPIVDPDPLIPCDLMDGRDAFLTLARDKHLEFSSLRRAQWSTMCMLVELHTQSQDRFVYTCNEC

Experiments:
[1] = biological target: histones purified from calf thymus
[2] = biological target: T1, Tat ARM peptide (amino acids 45-58) K51A
[3] = biological target: T2, Tat ARM peptide (amino acids 45-58) K50A
[4] = biological target: full-length synthetic Tat protein (72 amino acids), unmodified
[5] = biological target: T3, Tat ARM peptide carrying an acetyl …
[6] = biological target: T4, unmodified Tat ARM peptide (amino acids …)
[7] = biological target: T5, Tat ARM peptide (amino acids 45-58) …
[8] = biological target: T6, Tat ARM peptide (amino acids 45-58) …

Row | Protein | in vitro methylation with radiolabeled SAM, autoradiography [1] | in vitro methylation with radiolabeled SAM; MALDI-TOF [2] | in vitro methylation with radiolabeled SAM; MALDI-TOF [3] | in vitro methylation with radiolabeled SAM, autoradiography [4] | in vitro methylation with radiolabeled SAM; MALDI-TOF [5] | MALDI-TOF mass shift after methylation reaction [6] | radioactive in vitro methylation of short Tat peptides [6] | in vitro methylation with radiolabeled SAM, autoradiography (recombinant GST-IκBα) | in vitro methylation with radiolabeled SAM [7] | in vitro acetylation with 14C-AcCoA, autoradiography [8] | in vitro acetylation with 14C-AcCoA, autoradiography [6]
1 | B1 | Set9 also methylated purified histones, predominantly histone H3, a known substrate of Set9 | Methylation by Set9 was abrogated when K51 or both lysines were mutated | mutation of K50 alone had no effect | The Tat protein was methylated in response to increasing amounts of Set9 enzyme | No methylation signal was observed | a shift of 14 Da was detected in the methylated ARM peptide, corresponding to the addition of a single methyl group | Methylation was observed with one peptide (45-58 amino acids) corresponding to the arginine-rich motif (ARM) of Tat | methylation by Set9 was not observed with another recombinant protein, GST-IκBα | Methylation by Set9 was abrogated when K51 or both lysines were mutated |  | 
2 | B2 |  |  |  |  |  |  |  |  |  | Acetylation by p300 occurred regardless of the methylation status of K51 | Acetylation by p300 occurred regardless of the methylation status of K51
